B1: C9orf25 (parent)
chain: LARKGSLKNGSMGSPVNQQPKKNN

This passage reports protein stability index results from the supplement of paper PMC10567573.
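Also: lentivirally expressed fusions sorted by FACS into six bins by GFP to DsRed ratio, PSI derived from sequencing read proportions per bin multiplied by bin number.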

In this series the parent is B1. Nature of the series: protein stability index of a GFP-peptide fusion (GPS, HEK-293T) (PSI 1-6); higher = more stable. The following applies: c terminus: a fixed tail appended.
For the variant LARKMSLKNGSMGSPVNQQPKKNN [G5M], the protein stability index worked out at 4.06.

Consider LARKESLKNGSMGSPVNQQPKKNN [G5E], for which the protein stability index came to 4.82. Take LARKSSLKNGSMGSPVNQQPKKNN [G5S]: the protein stability index was 4.8. The figure for LARKCSLKNGSMGSPVNQQPKKNN [G5C] is 4.29; for LARKTSLKNGSMGSPVNQQPKKNN [G5T] it is 4.53. The figure for LARKWSLKNGSMGSPVNQQPKKNN [G5W] is 4.06; for LARKFSLKNGSMGSPVNQQPKKNN [G5F] it is 4. Consider LARKQSLKNGSMGSPVNQQPKKNN [G5Q], for which the protein stability index stood at 4.6.

Take LARKVSLKNGSMGSPVNQQPKKNN [G5V]: the protein stability index worked out at 4.26.

On to LARKPSLKNGSMGSPVNQQPKKNN [G5P], for which the protein stability index was found to be 4.48. The same measure for LARKNSLKNGSMGSPVNQQPKKNN [G5N]: 4.07; for LARKKSLKNGSMGSPVNQQPKKNN [G5K]: 5.05; for LARKISLKNGSMGSPVNQQPKKNN [G5I]: 3.99. In the case of LARKDSLKNGSMGSPVNQQPKKNN [G5D], the protein stability index worked out at 4.58. In the case of LARKASLKNGSMGSPVNQQPKKNN [G5A], the protein stability index was determined as 4.5. With LARKRSLKNGSMGSPVNQQPKKNN [G5R], the protein stability index came out at 4.34. For the variant LARKLSLKNGSMGSPVNQQPKKNN [G5L], the protein stability index was determined as 3.55.

Take LARKYSLKNGSMGSPVNQQPKKNN [G5Y]: the protein stability index came to 3.27.

In the case of LARKHSLKNGSMGSPVNQQPKKNN [G5H], the protein stability index stood at 4.49. In the case of LIRKGSLKNGSMGSPVNQQPKKNN [A2I], the protein stability index was determined as 4.37. The figure for LFRKGSLKNGSMGSPVNQQPKKNN [A2F] is 4.04; for LMRKGSLKNGSMGSPVNQQPKKNN [A2M] it is 4.9.

In the case of LPRKGSLKNGSMGSPVNQQPKKNN [A2P], the protein stability index turned out to be 5.21. The same measure for LHRKGSLKNGSMGSPVNQQPKKNN [A2H]: 4.77; for LTRKGSLKNGSMGSPVNQQPKKNN [A2T]: 4.54; for LRRKGSLKNGSMGSPVNQQPKKNN [A2R]: 3.68.

With LDRKGSLKNGSMGSPVNQQPKKNN [A2D], the protein stability index worked out at 4.87. LWRKGSLKNGSMGSPVNQQPKKNN [A2W]: the protein stability index turned out to be 4.03. Take LLRKGSLKNGSMGSPVNQQPKKNN [A2L]: the protein stability index turned out to be 4.58. As for LCRKGSLKNGSMGSPVNQQPKKNN [A2C], the protein stability index turned out to be 4.12. As for LKRKGSLKNGSMGSPVNQQPKKNN [A2K], the protein stability index came out at 4.13.

Regarding LSRKGSLKNGSMGSPVNQQPKKNN [A2S], the protein stability index stood at 4.72. On to LYRKGSLKNGSMGSPVNQQPKKNN [A2Y], for which the protein stability index stood at 4.24. The same measure for LGRKGSLKNGSMGSPVNQQPKKNN [A2G]: 4.76; for LVRKGSLKNGSMGSPVNQQPKKNN [A2V]: 4.07; for LERKGSLKNGSMGSPVNQQPKKNN [A2E]: 5.09. Turning to LQRKGSLKNGSMGSPVNQQPKKNN [A2Q], the protein stability index stood at 4.63.

LNRKGSLKNGSMGSPVNQQPKKNN [A2N]: the protein stability index turned out to be 4.59. For LARGGSLKNGSMGSPVNQQPKKNN [K4G], the protein stability index is 5.17. In the case of LARSGSLKNGSMGSPVNQQPKKNN [K4S], the protein stability index was determined as 4.68. The same measure for LARNGSLKNGSMGSPVNQQPKKNN [K4N]: 4.25; for LARRGSLKNGSMGSPVNQQPKKNN [K4R]: 3.74; for LARMGSLKNGSMGSPVNQQPKKNN [K4M]: 4.62. Take LARLGSLKNGSMGSPVNQQPKKNN [K4L]: the protein stability index stood at 4.23. Consider LARAGSLKNGSMGSPVNQQPKKNN [K4A], for which the protein stability index came out at 4.74.

As to LARFGSLKNGSMGSPVNQQPKKNN [K4F], the protein stability index amounted to 5.08.

Turning to LARTGSLKNGSMGSPVNQQPKKNN [K4T], the protein stability index amounted to 5. LARVGSLKNGSMGSPVNQQPKKNN [K4V]: the protein stability index turned out to be 4.42. Turning to LARPGSLKNGSMGSPVNQQPKKNN [K4P], the protein stability index turned out to be 4.92.

With LARWGSLKNGSMGSPVNQQPKKNN [K4W], the protein stability index stood at 4.15.

For the variant LARCGSLKNGSMGSPVNQQPKKNN [K4C], the protein stability index was 4.74. The figure for LARIGSLKNGSMGSPVNQQPKKNN [K4I] is 3.71; for LARDGSLKNGSMGSPVNQQPKKNN [K4D] it is 4.88; for LAREGSLKNGSMGSPVNQQPKKNN [K4E] it is 4.91. LARHGSLKNGSMGSPVNQQPKKNN [K4H]: the protein stability index came out at 4.68. Regarding LARYGSLKNGSMGSPVNQQPKKNN [K4Y], the protein stability index was 4.13.

For LARQGSLKNGSMGSPVNQQPKKNN [K4Q], the protein stability index was 3.95. In the case of LARKGALKNGSMGSPVNQQPKKNN [S6A], the protein stability index was determined as 4.33.

As to LAEKGSLKNGSMGSPVNQQPKKNN [R3E], the protein stability index worked out at 4.69.

On to LACKGSLKNGSMGSPVNQQPKKNN [R3C], for which the protein stability index stood at 4.85. Regarding LAIKGSLKNGSMGSPVNQQPKKNN [R3I], the protein stability index turned out to be 4.58.

As to LAQKGSLKNGSMGSPVNQQPKKNN [R3Q], the protein stability index is 4.99. Regarding LAKKGSLKNGSMGSPVNQQPKKNN [R3K], the protein stability index came to 4.33. On to LATKGSLKNGSMGSPVNQQPKKNN [R3T], for which the protein stability index came out at 4.85. As to LAFKGSLKNGSMGSPVNQQPKKNN [R3F], the protein stability index was 4.54.

For LADKGSLKNGSMGSPVNQQPKKNN [R3D], the protein stability index was found to be 5.2.

Take LAGKGSLKNGSMGSPVNQQPKKNN [R3G]: the protein stability index turned out to be 5.02. Regarding LAAKGSLKNGSMGSPVNQQPKKNN [R3A], the protein stability index was determined as 5.05. The same measure for LALKGSLKNGSMGSPVNQQPKKNN [R3L]: 4.41; for LAMKGSLKNGSMGSPVNQQPKKNN [R3M]: 4.85; for LAVKGSLKNGSMGSPVNQQPKKNN [R3V]: 4.85.

Consider LAYKGSLKNGSMGSPVNQQPKKNN [R3Y], for which the protein stability index was 4.73. Take LAHKGSLKNGSMGSPVNQQPKKNN [R3H]: the protein stability index was 4.85. Take LAWKGSLKNGSMGSPVNQQPKKNN [R3W]: the protein stability index is 4.14. As to LASKGSLKNGSMGSPVNQQPKKNN [R3S], the protein stability index was 4.67. With LANKGSLKNGSMGSPVNQQPKKNN [R3N], the protein stability index came out at 4.96. Regarding LAPKGSLKNGSMGSPVNQQPKKNN [R3P], the protein stability index worked out at 5.03. The same measure for CARKGSLKNGSMGSPVNQQPKKNN [L1C]: 4.32. With QARKGSLKNGSMGSPVNQQPKKNN [L1Q], the protein stability index worked out at 4.85.

As to MARKGSLKNGSMGSPVNQQPKKNN [L1M], the protein stability index came out at 4.89. As to YARKGSLKNGSMGSPVNQQPKKNN [L1Y], the protein stability index turned out to be 3.77.

With PARKGSLKNGSMGSPVNQQPKKNN [L1P], the protein stability index amounted to 4.76. Consider IARKGSLKNGSMGSPVNQQPKKNN [L1I], for which the protein stability index came out at 4.66. Consider TARKGSLKNGSMGSPVNQQPKKNN [L1T], for which the protein stability index was 4.31. On to EARKGSLKNGSMGSPVNQQPKKNN [L1E], for which the protein stability index was found to be 5.35. The figure for DARKGSLKNGSMGSPVNQQPKKNN [L1D] is 5.07.

Take AARKGSLKNGSMGSPVNQQPKKNN [L1A]: the protein stability index was 5.34. For FARKGSLKNGSMGSPVNQQPKKNN [L1F], the protein stability index amounted to 3.96. The figure for VARKGSLKNGSMGSPVNQQPKKNN [L1V] is 4.92; for SARKGSLKNGSMGSPVNQQPKKNN [L1S] it is 5.53. The figure for RARKGSLKNGSMGSPVNQQPKKNN [L1R] is 4.81; for WARKGSLKNGSMGSPVNQQPKKNN [L1W] it is 4.3. As to HARKGSLKNGSMGSPVNQQPKKNN [L1H], the protein stability index stood at 4.95.

In the case of KARKGSLKNGSMGSPVNQQPKKNN [L1K], the protein stability index is 4.76.
